Substitutions are numbered along the chain they refer to.
T1: MERS-CoV (NCoV/Novel coronavirus) Spike Protein (ECD, aa 1-1297, His Tag) (Sino 40069-[change]) (MERS-CoV, UniProt K9N5Q8 18-1297)
T1 sequence: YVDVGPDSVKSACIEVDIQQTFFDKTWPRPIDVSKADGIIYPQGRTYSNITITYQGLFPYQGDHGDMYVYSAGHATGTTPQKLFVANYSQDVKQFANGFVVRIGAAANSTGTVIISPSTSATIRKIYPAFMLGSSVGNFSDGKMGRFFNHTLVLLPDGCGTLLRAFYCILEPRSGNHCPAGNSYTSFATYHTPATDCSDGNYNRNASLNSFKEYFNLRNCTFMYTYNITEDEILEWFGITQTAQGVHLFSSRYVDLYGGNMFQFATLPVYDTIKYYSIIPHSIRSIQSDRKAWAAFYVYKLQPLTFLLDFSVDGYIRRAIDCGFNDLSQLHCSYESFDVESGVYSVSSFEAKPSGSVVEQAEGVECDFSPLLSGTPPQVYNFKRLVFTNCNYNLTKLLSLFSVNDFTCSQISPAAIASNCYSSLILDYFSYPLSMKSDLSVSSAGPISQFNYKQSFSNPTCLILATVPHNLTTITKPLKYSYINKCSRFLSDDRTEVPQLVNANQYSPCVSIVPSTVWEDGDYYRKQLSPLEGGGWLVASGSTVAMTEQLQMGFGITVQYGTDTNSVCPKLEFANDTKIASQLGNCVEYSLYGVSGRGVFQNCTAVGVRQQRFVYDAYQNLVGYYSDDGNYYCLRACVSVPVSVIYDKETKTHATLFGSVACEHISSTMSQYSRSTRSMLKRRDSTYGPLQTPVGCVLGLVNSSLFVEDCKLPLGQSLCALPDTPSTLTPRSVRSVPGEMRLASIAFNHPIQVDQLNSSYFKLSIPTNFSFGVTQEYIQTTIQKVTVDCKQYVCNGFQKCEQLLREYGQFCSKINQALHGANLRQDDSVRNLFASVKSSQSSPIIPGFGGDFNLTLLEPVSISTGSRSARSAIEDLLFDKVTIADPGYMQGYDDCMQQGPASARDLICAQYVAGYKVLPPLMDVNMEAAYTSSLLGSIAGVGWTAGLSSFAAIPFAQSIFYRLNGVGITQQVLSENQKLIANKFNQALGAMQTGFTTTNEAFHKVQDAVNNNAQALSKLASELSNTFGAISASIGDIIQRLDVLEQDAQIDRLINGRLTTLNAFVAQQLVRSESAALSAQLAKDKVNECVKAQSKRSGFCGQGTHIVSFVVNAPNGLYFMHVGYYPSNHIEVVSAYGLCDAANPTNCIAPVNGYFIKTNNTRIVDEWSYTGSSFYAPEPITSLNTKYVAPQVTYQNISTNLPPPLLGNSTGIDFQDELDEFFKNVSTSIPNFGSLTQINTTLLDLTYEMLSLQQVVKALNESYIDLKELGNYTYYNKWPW

T2: MERS-CoV (NCoV/Novel coronavirus) Spike Protein S2 (aa 726-1296, His Tag) (Sino 40070-[change]) (MERS-CoV, UniProt K9N5Q8 726-1296)
T2 sequence: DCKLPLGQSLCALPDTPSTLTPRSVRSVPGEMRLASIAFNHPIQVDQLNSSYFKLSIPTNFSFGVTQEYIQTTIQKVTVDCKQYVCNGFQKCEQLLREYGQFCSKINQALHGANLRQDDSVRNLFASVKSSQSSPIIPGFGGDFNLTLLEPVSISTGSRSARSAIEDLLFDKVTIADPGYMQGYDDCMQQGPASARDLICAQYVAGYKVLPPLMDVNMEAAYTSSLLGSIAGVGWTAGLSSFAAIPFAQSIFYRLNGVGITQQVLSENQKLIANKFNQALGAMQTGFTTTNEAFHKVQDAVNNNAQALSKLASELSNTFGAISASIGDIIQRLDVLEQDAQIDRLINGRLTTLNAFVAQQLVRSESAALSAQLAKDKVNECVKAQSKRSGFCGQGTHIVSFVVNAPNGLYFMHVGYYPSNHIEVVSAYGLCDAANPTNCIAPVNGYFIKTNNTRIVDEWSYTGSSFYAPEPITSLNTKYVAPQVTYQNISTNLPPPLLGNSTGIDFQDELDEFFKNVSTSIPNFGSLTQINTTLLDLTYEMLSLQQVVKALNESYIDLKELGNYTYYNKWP

T3: MERS-CoV (NCoV/Novel coronavirus) Spike Protein fragment (RBD, aa 367-606, His Tag) (Sino 40071-V08B1) (MERS-CoV, UniProt K9N5Q8 367-606)
T3 sequence: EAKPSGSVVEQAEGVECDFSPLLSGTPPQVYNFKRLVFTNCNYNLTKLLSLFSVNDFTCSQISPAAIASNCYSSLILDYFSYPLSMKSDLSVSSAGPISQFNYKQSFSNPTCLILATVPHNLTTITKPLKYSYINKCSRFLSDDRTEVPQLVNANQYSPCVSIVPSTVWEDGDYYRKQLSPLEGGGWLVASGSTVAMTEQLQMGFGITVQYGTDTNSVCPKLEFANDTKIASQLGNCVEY

B1: mAb10971 (antibody, V domains shown)
VH: EVQLVESGGGLIQPGGSLRLSCAASGVTVSSNYMSWVRQAPGKGLEWVSVIYSGGSTFYSDSVKGRFSISRDNSKNTLYLQMNSLRAEDTAVYYCARDLYYYGMDVWGQGTTVTVSS
VL: DIQLTQSPSFLSASVGDRVTITCRASQGISTYLAWYQQKPGKAPKLLIYAASTLQSGVPSRFSGSGSGTEFTLTISSLQPEDFATYYCQQLDSYPGLTFGGGTKVEIKR
B2: mAb10955 (antibody, V domains shown)
VH: EVQLVESGGGLVQPGGSLRVSCAASGFTVSRNYMSWVRQAPGKGLEWVSVIYSGGSTFYADSVKGRFTISRDNSKNTLYLQMNSLRAEDTAIYYCARYIPRFDPWGQGTLVTVSS
VL: DIQMTQSPSSLSASVGDRVTITCQASQDISNYLNWFQQKPGRAPKLLIYDASNLETGVPSRFSGSGSGTDFTFTISSLQPEDIATYYCQQYDNLPITFGQGTRLEIKR
B3: mAb10964 (antibody, V domains shown)
VH: QVQLQESGPGLVKPSETLSLTCTVSGGSINNYYWIWIRQPPGKGLEWIGYIYHSGSTNYNPSLKSRVTISVDTSKNQFSLKVSSVTAADTAVYYCANMVRGVYEDDYWGQGTLVTVSS
VL: DIQMTQSPSSLSASVGDRVTITCRASQSISNYLNWYQQKPGKAPKLLIFAASSLRSGVPSRFSGSGSGTDFTLTISSLHPEDFATYYCQQNYNTPLTFGPGTKVDIKR
B4: mAb10969 (antibody, V domains shown)
VH: QVQLVESGGGVVQPGRSLRLSCAASGFTFSSYAMHWVRQAPGKGLEWVAVISYDGSNKYYADSVKGRFTISRDNSKNTLYLQMNSLRAEDTAVYYCARDGRTITMVRGVIDDAFDIWGQGTMVTVSS
VL: not shown
B5: mAb10970 (antibody, V domains shown)
VH: EVQLVESGGGLVQPGGSLRLSCAASGFTVSSNYMSWVRQAPGKGLEWVSVIYSGGSTYYADSVKGRFTISRDNSKNTLYLQMNRLRADDTAVYYCVRDPVGRYYYGMDVWGQGTTVTVSS
VL: not shown
B6: mAb10987 (antibody, V domains shown)
VH: QVQLVESGGGVVQPGRSLRLSCAASGFTFSNYAMYWVRQAPGKGLEWVAVISYDGSNKYYADSVKGRFTISRDNSKNTLYLQMNSLRTEDTAVYYCASGSDYGDYLLVYWGQGTLVTVSS
VL: QSALTQPASVSGSPGQSITISCTGTSSDVGGYNYVSWYQQHPGKAPKLMIYDVSKRPSGVSNRFSGSKSGNTASLTISGLQSEDEADYYCNSLTSISTWVFGGGTKLTVLG
B7: mAb11002 (antibody, V domains shown)
VH: EVQLVESGGGLVQPGGSLRLSCAASGFTVSSNYMSWVRQAPGKGLEWVSVIYSGGSTFYADSVKGRFTISRHNSKNTLYLQMNSLRAEDTAVYYCAREGYGMDVWGQGTTVTVSS
VL: not shown
B8: mAb11010 (antibody, V domains shown)
VH: QVQLVESGGGVVQPGRSLRLSCAASGFTFSSYGMHWVRQAPGKGLEWVAVISYDGSYKYYADSVKGRFTISRDNSKNTLYLQMNSLRAEDTAVYYCAIDGGTVTTIFDYWGQGTLVTVSS
VL: not shown
B9: mAb10998 (antibody, V domains shown)
VH: EVQLVESGGGLVHPGGSLRLSCAASGLTVSSNYMSWVRQAPGKGLEWVSVIYSGGSTYYADSVKGRFTISRHNSKNTLFLQMNSLRAEDTAVYYCARDRPITGTTLDVWGQGTTVTVSS
VL: DIQMTQSPSSLFASVGDRVTITCRASQSISSYLNWYQQKPGKAPKLLIYAASSLQSGVPSRFSGSGSGTDFTLTISSLQPEDFAFYYCQQTYSTPPITFGQGTRLEIK
B10: mAb11000 (antibody, V domains shown)
VH: B1 VH with I12V, V27F, S35N, S60A, K64R, S68T, D72H, L99G, Y100S, Y101A
VL: not shown
B11: mAb11006 (antibody, V domains shown)
VH: EVQLVESGGGLVQPGGSLRLSCAASGFIVSRNYMSWVRQAPGKGLEWVSVIYSGGSTFYADSVKGRFTISRHNSKNTLYLQMNSLKAEDTAVYYCARELRGYFDYWGQGTLVTVSS
VL: DIQLTQSPSFLSASVGDRVTITCWASQGISSYLAWYQQKPGKAPKLLIYAASTLQSGVPSRFSGSGSGTEFTLTISSLQPEDFATYYCQLLNSYPYTFGQGTKLEIK

What follows are binders tested against T4, Human SARS Coronavirus Spike S1 Subunit Protein (His Tag) (Sino 40150-V08B1) (Human SARS Coronavirus, UniProt P59594 14-667) (assay: Luminex bead binding, supernatant).

Row | Binder | Binding signal (MFI)
1 | B1 | 20 MFI
2 | B2 | 14 MFI
3 | B3 | 5190 MFI
4 | B4 | 20 MFI

Each binder was assayed against T1, MERS-CoV (NCoV/Novel coronavirus) Spike … (assay: Luminex bead binding, supernatant).

Row | Binder | Binding signal (MFI)
5 | B1 | 15 MFI
6 | B5 | 14 MFI
7 | B2 | 15 MFI
8 | B3 | 15 MFI
9 | B4 | 16 MFI
10 | B6 | 15 MFI

These binders were tested against T2, MERS-CoV (NCoV/Novel coronavirus) Spike … (assay: Luminex bead binding, supernatant).

Row | Binder | Binding signal (MFI)
11 | B1 | 13 MFI
12 | B5 | 16 MFI
13 | B2 | 18 MFI
14 | B4 | 20 MFI
15 | B6 | 23 MFI

The binders below were run against T3, MERS-CoV (NCoV/Novel coronavirus) Spike … (assay: Luminex bead binding, supernatant).

Row | Binder | Binding signal (MFI)
16 | B1 | 20 MFI
17 | B5 | 23 MFI
18 | B2 | 20 MFI
19 | B3 | 20 MFI
20 | B4 | 26 MFI

Target: T4, Human SARS Coronavirus Spike S1 Subunit …
Assay: Luminex bead binding, supernatant
Remark: another data set of the same source

Row | Binder | Binding signal (MFI)
21 | B7 | 31 MFI
22 | B8 | 7420 MFI
23 | B9 | 16 MFI

Target: T3, MERS-CoV (NCoV/Novel coronavirus) Spike …
Assay: Luminex bead binding, supernatant
Remark: another data set of the same source

Row | Binder | Binding signal (MFI)
24 | B10 | 27 MFI

What follows are binders tested against SARS-CoV-2 Spike Protein (RBD)(R319-F541).mFc (mAb10621-L1) (SARS-CoV-2) (assay: Luminex bead binding, supernatant).

Row | Binder | Binding signal (MFI)
25 | B7 | 9530 MFI
26 | B8 | 14400 MFI
27 | B11 | 2870 MFI
28 | B9 | 2230 MFI

Each binder was assayed against SARS-CoV-2 Spike Protein (RBD)(R319-F541).hFc (mAb10622-L1) (SARS-CoV-2) (assay: Luminex bead binding, supernatant).

Row | Binder | Binding signal (MFI)
29 | B7 | 9380 MFI
30 | B8 | 8880 MFI
31 | B11 | 3980 MFI
32 | B9 | 1740 MFI

What follows are binders tested against Bt-SARS-CoV-2 Spike Protein (RBD)(R319-F541).mFc (mAb10621-L2) (SARS-CoV-2) (assay: Luminex bead binding, supernatant).

Row | Binder | Binding signal (MFI)
33 | B7 | 2200 MFI
34 | B8 | 9350 MFI
35 | B11 | 1400 MFI
36 | B9 | 2230 MFI

Reference: patent US20240043504A1 (published 2024)
